From the nanobody polyreactivity screen of Harvey et al. (2022)

Experiment: yeast display, Sf9 membrane polyspecificity reagent, FACS + sequencing; frameworks hold sequencing errors
How it was run: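 Synthetic nanobody libraries on Saccharomyces cerevisiae BJ5465 were galactose-induced for 36–48 hours, stained 1 hour at 4 °C with 10% biotinylated, detergent-solubilized Sf9 membrane reagent and enriched on streptavidin microbeads. FACS then separated cells into low and high (top ~1%) gates by anti-HA (expression) and streptavidin (reagent binding) fluorescence. Genes were colony-PCR amplified, MiSeq 2 × 250 sequenced and CDR-length filtered. A clone's polyreactivity label is that of its gate of origin.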
With “QVQLVESGGGLVQAGGSLRLSCAASGFTLYYYTMGWYRQAPGKERELVAAITSGGDTYYADSVKGRFTISRDNAKNTVYLQMNSLKPEDTAVYYCDAKKKYHYVASYKRFEYWGQGTQVTVSS” the “polyreactivity (PSR sort gate)” value was “low polyreactivity”.
In the case of “QVQLVESGGGLVQAGGSLRLSCAASGFTMARYAMGSYRQAPGKERELVAAISWSGGSTYYADSVKGRFTISRDNAKNTVYLQMNSLKPEDTAVYYCNAVYATRIGFDYWGQGTQVTVSS”, the “polyreactivity (PSR sort gate)” value was “high polyreactivity”.
In the case of “QVQLVESGGGLVQAGGSLRLSCAASGFTNAMGWYRQAPGKERELVAAISYSGDSTNYADSVKGRFTISRDNAKNTVYLQMKSLKPEDSAVYYCNASSPYDYDWGQGTQVTVSS”, the “polyreactivity (PSR sort gate)” value was “low polyreactivity”.
With “QVQLVESGGGLVQAGGSLRLSCAASGFTSDTNAMGWYRQAAGKERELVAAIDSGGGSTYYADSVKGRFTISRENSKNTVYFQMNSLKPEDTAVYYCNAEQTPFVASLRVGEYGYWGQGTQVTVSS” the “polyreactivity (PSR sort gate)” value was “low polyreactivity”.
In the case of “QVQLVESGGGLVQAGGSLRLSCAASGFTSRANAMGWYRQAPWKESELVAVITAGGGSTSYADSVKGRFTISRDNAKNTVYLQMNSLKPEDTAVYYCASTWYGGPYKSYYYWGQGTQVTVSS”, the “polyreactivity (PSR sort gate)” value was “low polyreactivity”.
For “QVQLVESGGGLVQAGGSLRLSCAASGFTSRTYAMGWYRQAPGKERELVAAITFSGGSTYYADSVKGRFTISRDNAKNTVYLQMNSLKPEDTAVYYCARDGLWYNAIWEYDYWGQGTQVTVSS”, the “polyreactivity (PSR sort gate)” value was “high polyreactivity”.
In the case of “QVQLVESGGGLVQAGGSLRLSCAASGFTSWDNDMGWYRQAPGKERELVAAISRGGSTNYADSVKGRFTISRDNAKNTVYLQMNSLNPEDTAVYYCAAEDWYQRYGYEYDYWGQGTQVTVSS”, the “polyreactivity (PSR sort gate)” value was “low polyreactivity”.
For “QVQLVESGGGLVQAGGSLRLSCAASGFTSWVYAMGWYRPAPGKERELVAAITWSTDDTYYADSVKGRFTISRDNSKNTVYIQINSLKPEDSAVYYCAAQQYTYVETWDGYDYWGQGTQVTVSS”, the “polyreactivity (PSR sort gate)” value was “low polyreactivity”.
With “QVQLVESGGGLVQAGGSLRLSCAASGFTSWYDMGWYRQAPGKEMELVAAISSGGSTNYADSVKGRFTISRDNAKNTVYLEMNSLKPEDTAVYYCNAECYETGVPYFGFYYWGQGTQVTVSS” the “polyreactivity (PSR sort gate)” value was “low polyreactivity”.
In the case of “QVQLVESGGGLVQAGGSLRLSCAASGFTVAYYAMGWYRQAPGKERELVAAITGSGGRTYYADSVKGRFTISRDNAKNTVYLQMTSLKPEDTAVYYCAALTGPYKAQVHGGHTPLDYWGHGTQVTVSS”, the “polyreactivity (PSR sort gate)” value was “low polyreactivity”.
In the case of “QVQLVESGGGLVQAGGSLRLSCAASGFTVGYAMGWYRQAPGTERELVAAITRGGGTRTSYADSVKGRFTISRDNAKNTVYLQMNSLKPEDTAVYYCAARRWWSPRTQYDYWGQGTQVTVSS”, the “polyreactivity (PSR sort gate)” value was “high polyreactivity”.
In the case of “QVQLVESGGGLVQAGGSLRLSCAASGFTVRKYAMGWYRQAPGKERELVAAITWSGGRTYYADSVKGRFTISRDNAKNTVSLQMNSLKPEDTAVYYCAAVIQSRKYDSWGQGTQVTVSS”, the “polyreactivity (PSR sort gate)” value was “high polyreactivity”.
With “QVQLVESGGGLVQAGGSLRLSCAASGFTVSYNTMGWYRQAPGKERELVAAISARGTSTYYADSVKGRFTISRDNAKNTVYLQMNSLKPEDTAVYYCAAAYRIGSGYWGQGTQVTVSS” the “polyreactivity (PSR sort gate)” value was “high polyreactivity”.
For “QVQLVESGGGLVQAGGSLRLSCAASGFTVWLYAMGWYRQAPGKEREFVAAISTSGGSTYADSVKGRFTISRDNAKKTVYLQMNSLKPEDTAVYYCAADDLPSTGYDYWGQRTQVTVSS”, the “polyreactivity (PSR sort gate)” value was “low polyreactivity”.
With “QVQLVESGGGLVQAGGSLRLSCAASGFTYFGYAMGWYRQAPGKERELVAAISTIDGDTYYADSVKGRFTISRDNAKNTVYLQMNSLKPEDTAVYYCAADDYIDGDDYWGQGTQVTVSS” the “polyreactivity (PSR sort gate)” value was “low polyreactivity”.
For “QVQLVESGGGLVQAGGSLRLSCAASGFTYIYYAMGWYRQAPGKERELVAAITSGGRTYYADSVKGRFTISRDNAKNTVYLQMNSLKPEDTAVYYCAKRFTLPLSEYDYWGQGTQVIVSS”, the “polyreactivity (PSR sort gate)” value was “high polyreactivity”.
With “QVQLVESGGGLVQAGGSLRLSCAASGFTYRRYAMGWYRQAPGKERELVAAITWSGGSTYYADSVKGRITISRDNAKNTVYLQMNSLKPEDTAVYYCNKAYSPLYFSYNYWGQGTQVTVSS” the “polyreactivity (PSR sort gate)” value was “high polyreactivity”.
In the case of “QVQLVESGGGLVQAGGSLRLSCAASGFTYYYYAMGWYRQAHGKERELVAAISTRDGNTYYADSVKGRFTISRDNAKNTVYLQMNSLKPEDTAVYYCAADYFRYYPYDYWGQGTLVTVSS”, the “polyreactivity (PSR sort gate)” value was “low polyreactivity”.
In the case of “QVQLVESGGGLVQAGGSLRLSCAASGFYYYAMGWYRQAPGKERELVAVITYSGGSTYYADSVKGRFTISRDNAKNTVYLQMNSLKPEDTAVYYCAADDYYVALPGLYDYWGQGTQVTVSS”, the “polyreactivity (PSR sort gate)” value was “low polyreactivity”.
For “QVQLVESGGGLVQAGGSLRLSCAASGGICRYYAMGWYRPAPGKERELVAAISRGGNTKYADSVKGRFTISRDNAKNTVYLQMNSLKPEDTAVYYCNAYTYNRYYWGQGTQVTVSS”, the “polyreactivity (PSR sort gate)” value was “high polyreactivity”.
For “QVQLVESGGGLVQAGGSLRLSCAASGGIFAPNAMGWYRQAPGKERELVAAISTGGGSTRYADSVKGRFTISRDNAKNTVYLQMNSLKPEDTAVYYCAATRVGVRRMDYWGQGTQVTVSS”, the “polyreactivity (PSR sort gate)” value was “low polyreactivity”.
In the case of “QVQLVESGGGLVQAGGSLRLSCAASGGIFAPYAMGWYRQAPGKERELVAAISSSDGSTYYADSVKGSFTISRDNAKNTVYLQMNSLKPEDTAVYYCAADYREDYGYWGQGTQVTVSS”, the “polyreactivity (PSR sort gate)” value was “low polyreactivity”.
With “QVQLVESGGGLVQAGGSLRLSCAASGGIFAPYAMGWYRQAPGKERELVADITSDGGSTYYADSVKGRFTISRDNAKNTVYLQMNSLKPEDTAVYYCAAEQRYCWWGHPGDYWGQGTQVTVSS” the “polyreactivity (PSR sort gate)” value was “low polyreactivity”.
For “QVQLVESGGGLVQAGGSLRLSCAASGGIFAWYAMGWYRQAPGKERELVAAIDHSGGSTYYADSVKGRFTISRDNAKNTVYLQMNSLKPEDTAVYYCNAGYYGYWEKYDYWGQGTQVTVSS”, the “polyreactivity (PSR sort gate)” value was “low polyreactivity”.
In the case of “QVQLVESGGGLVQAGGSLRLSCAASGGIFDIYAMGWYRQAPGKERELVAAIRGSGGRTYYADSVKGRFTISRDNAKNTVYLQMNSLKPEDTAVYYCAARPSIVTGLRYGYWGQGTQVTVSS”, the “polyreactivity (PSR sort gate)” value was “high polyreactivity”.
For “QVQLVESGGGLVQAGGSLRLSCAASGGIFDTNAMGWYRQAPGKEREFVAAITGSGGSTYYADSVKGRFTISRDNAKNTVYLQMNSLKPEDTAVYYCAAPLSYYWVYIVRYGYDYWGQGTQVTVSS”, the “polyreactivity (PSR sort gate)” value was “low polyreactivity”.
With “QVQLVESGGGLVQAGGSLRLSCAASGGIFDTYAMGWYRQAPGKERELVAAISRRGGNTYYADSVKGRFTIARDNAKNTVYLQMNSLKPEDTAVYYCAAYYHGRMDYWGQGTQVTVSS” the “polyreactivity (PSR sort gate)” value was “high polyreactivity”.
For “QVQLVESGGGLVQAGGSLRLSCAASGGIFDTYVMGWYRQAPGKETELVAAISSSGSTTYADSVKGRFTISRDNAKNTVYLQMNSLKPEDTAVYYCNADYSTIWRYDYWGQGTQVTVSS”, the “polyreactivity (PSR sort gate)” value was “low polyreactivity”.
With “QVQLVESGGGLVQAGGSLRLSCAASGGIFDYYAMGWYRQAPGKERELVAAIRGGGSTNYADSVKGRFTISRDNAKNTVYLQMNSLKPEDTAVYYCAKRAGPEYDYWGQGTQVTVSS” the “polyreactivity (PSR sort gate)” value was “low polyreactivity”.
For “QVQLVESGGGLVQAGGSLRLSCAASGGIFEAYVMGWYRQAPGKERELVAAISFRGGSTYYADSVKGRFTISRDNAKNTVYLQMNSLKPEDTAVYYCAADYRHQGYDYWGLGTQVTVSS”, the “polyreactivity (PSR sort gate)” value was “low polyreactivity”.
With “QVQLVESGGGLVQAGGSLRLSCAASGGIFEAYVMGWYRQAPGKERELVAAISFRGGSTYYADSVQGRFTISRVNAKNSVYLQMNSLKPEDTAVYYCAADYRHQGYDYWGQGTQVTVSS” the “polyreactivity (PSR sort gate)” value was “low polyreactivity”.
With “QVQLVESGGGLVQAGGSLRLSCAASGGIFEYYAMGWYRQAPGKERELVAAINTGGNTYYADSVKGRFTISRDNAKNTVYLQMNSLKPEDTAVYYCATDPIWYGGYLSGTDYDYWGQGTQVTVSS” the “polyreactivity (PSR sort gate)” value was “low polyreactivity”.
With “QVQLVESGGGLVQAGGSLRLSCAASGGIFFINAMGWYRQAPGKERELIAAISISDGSTYYADSVKGRFTISRDNAKNTVYLQMNSLKTEDTAVYYCAADYDVLRLGYARIPLYDYWGQGTQVTVSS” the “polyreactivity (PSR sort gate)” value was “low polyreactivity”.
In the case of “QVQLVESGGGLVQAGGSLRLSCAASGGIFFPNAMGWYRQAPGKERELGAAISWSAGSTYYADSVKGRFTISRDNAKNTVYLQMNSLKPEDTAVYYCAAAGSNYTVWYGYYYWGQGTQVTVSS”, the “polyreactivity (PSR sort gate)” value was “low polyreactivity”.
With “QVQLVESGGGLVQAGGSLRLSCAASGGIFFPNAMGWYRQAPGKERELVAAISWSAGSTYYADSVKGRFTISRDNAKNTVYLQMNSLKPEDTAVYYCAAAGSNYTVWYGYYYWGQGTQVTVSS” the “polyreactivity (PSR sort gate)” value was “low polyreactivity”.
For “QVQLVESGGGLVQAGGSLRLSCAASGGIFFRNDMGWYRQAPGKERELVAAISSNGGSTYYADSVKGRFTISRDNAKNTVYLQMNSLKPEDTAVYYCNTGVYSSGGPLDYWGQGTQVTVSS”, the “polyreactivity (PSR sort gate)” value was “low polyreactivity”.
In the case of “QVQLVESGGGLVQAGGSLRLSCAASGGIFFSYAMGWYRQAPGKERELVAAIRTNGGTTYYADSVKGRFTISRDNAKNTVYLQMNRLKPEDTAVYYCAALPGGYYDRGEYDYWGQGTQVTVSS”, the “polyreactivity (PSR sort gate)” value was “low polyreactivity”.
For “QVQLVESGGGLVQAGGSLRLSCAASGGIFGDYAMGWYRQEPGKERELVAAINSGDSTNYADSVKGRFTISRDNAKNTVYLQMNSLKPEDTAVYYCNARGYWVYYVEYDYWGQGTQVTVSS”, the “polyreactivity (PSR sort gate)” value was “low polyreactivity”.
In the case of “QVQLVESGGGLVQAGGSLRLSCAASGGIFGKYVMGWYRQAPGKERELVAGISRSAGITYYADSVKGRFTISRDNAKNTVYLQMNSLKPEDTAVYYCNARAWSYPSYHVGYDYWGQGTQVTVSS”, the “polyreactivity (PSR sort gate)” value was “high polyreactivity”.
For “QVQLVESGGGLVQAGGSLRLSCAASGGIFGWYAMGWYRQAPGKERELVATITWRGGRTYYADSVKGRFTISRDNAKNTVYLQMNSLKPEDTAVYYCNAEWLWYDAGYRYTIRDSWGQGTQVTVSS”, the “polyreactivity (PSR sort gate)” value was “low polyreactivity”.
In the case of “QVQLVESGGGLVQAGGSLRLSCAASGGIFGYNMGWNRQAPGKEWELVAAITSGGITNYADSVKGRFTISRDNAKNTVYLQMNSLKPQDTAVNYCNRSPGGGKETVLGGDYWGQGTQVTVSS”, the “polyreactivity (PSR sort gate)” value was “low polyreactivity”.
